Values quoted from earlier work, collected in patent US12065466B2, “Methods and compositions for protein sequencing” (Quantum-Si Incorporated, priority 2020, dated 2024).
Where a chain is given by its changes, count along the chain named.

B1: PS544: UBR-box domain homolog, SEQ ID NO: 173 (protein, listed as Homo sapiens)
chain: MGPLGSLCGRVFKSGETTYSCRDCAIDPTCVLCMDCFQDSVHKNHRYKMHTSTGGGFCDCGDTEAWKTGPFCVNHEP
B2: PS523: UBR-box domain homolog, SEQ ID NO: 151 (protein)
chain: MAKSHRHTGRNCGRAFQPGEPLYRCQECAYDDTCVLCISCFNPDDHVNHHVSTHICNELHDGICDCGDAEAWNVPLHCKAEED
modifications: Saccharomycetaceae sp. Ashbya aceri
B3: PS514: UBR-box domain homolog, SEQ ID NO: 142 (protein, listed as Tribolium castaneum)
chain: MVCGRVFKLGEPTYSCRECGMDNTCVLCVNCFKNSEHRFHKYKMGTSQGGGCCDCGDVEAWKKAPFCDVHIA
B4: PS521: UBR-box domain homolog, SEQ ID NO: 149 (protein)
chain: MLCGRVFRSGEPTYSCRDCAVDPTCVLCIDCFNNGAHRKHKYRMSTSSGGGYCDCGDKEAWKTDPLCEIHRK
modifications: Lingula anatine
B5: PS543: UBR-box domain homolog, SEQ ID NO: 172 (protein, listed as Trichinella spiralis)
chain: MKCNRQLICGEPTYCCLDCACDQTCIFCHACFQSSEHKNHRYSMSTSEGSGTCDCGDKEAWKSNYYCLNHKP
B6: PS534: UBR-box domain homolog, SEQ ID NO: 162 (protein)
chain: MKCGHIFRKGEVFYRCKTCSVDSNSALCVKCFRATSHKDHETSFTVSAGSGGCCDCGNAAAWIGDVSCKIHSH
modifications: Schizosaccharomyces pombe
B7: PS533: UBR-box domain homolog, SEQ ID NO: 161 (protein, listed as Contarinia nasturtii)
chain: MVCGRVFKMNEPFYSCRECGMDPTCVLCVNCFKQSAHRHHKYKMGTSAGGGCCDCGDNEAWKQDHYCDEHTK
B8: PS520: UBR-box domain homolog, SEQ ID NO: 148 (protein, listed as Monopterus albus)
chain: MLCGRVFKEGETVYSCRDCAIDPTCVLCMDCFQDSVHKSHRYKMHASSGGGFCDCGDVEAWKIGPCCSKHDP
B9: PS526: UBR-box domain homolog, SEQ ID NO: 154 (protein, listed as Maylandia zebra)
chain: B8 chain with C66Y
B10: PS541: UBR-box domain homolog, SEQ ID NO: 170 (protein)
chain: MRCGHIFRAGEATYRCITCAADDTCVLCSRCFDASDHTGHQYQISLSSGNCGCCDCGDEEAWRLPLFCAIHTD
modifications: Aspergillus neoniger
B11: PS618: UBR-box domain homolog, SEQ ID NO: 178 (protein, listed as Zygosaccharomyces bailii)
chain: MNASHKGAMCSKQCYPTETVFYCFTCTTNPLYEICESCFDEEKHRGHLYTAKVVVRPEGRVCHCGDPFVFKEPRFAFLCKN
B12: PS540: UBR-box domain homolog, SEQ ID NO: 169 (protein, listed as Clathrospora elynae)
chain: MPCGHIFKNGEATYRCKTCTADDTCVLCARCFDASDHEGHQVFVSVSPGNSGCCDCGDDEAWVRPVHCNMHSA
B13: PS516: UBR-box domain homolog, SEQ ID NO: 144 (protein)
chain: MLCGKVFKTGEPTYSCRDCANDPTCVLCIDCFQNGAHKNHRYKMNTSGGGGYCDCGDQEAWTSHPFCNLHSP
modifications: Crassostrea gigas
B14: PS537: UBR-box domain homolog, SEQ ID NO: 165 (protein, listed as Aedes aegypti)
chain: MVCGRVFKIGEPTYSCRECSMDPTCVLCSSCFKKSSHRLHKYKMSTSGGGGCCDCGDHEAWKRDPSCEEHAV
B15: PS524: UBR-box domain homolog, SEQ ID NO: 152 (protein, listed as Drosophila ficusphila)
chain: MVCGKVFKNGEPTYSCRECGVDPTCVLCVNCFKRSAHRFHKYKMSTSGGGGCCDCGDDEAWKKDHYCQLHLA
B16: PS531: UBR-box domain homolog, SEQ ID NO: 159 (protein, listed as Musca domestica)
chain: B15 chain with N9I, V21M, P23Q, R34Q, F39Y, D58E, Q68E, L69E, A72R
B17: PS536: UBR-box domain homolog, SEQ ID NO: 164 (protein, listed as Aphis gossypii)
chain: MVCGRVFKMGEPTYNCRECGMDSTCVLCVDCFKRSPHKNHKYKMGTSYGGGCCDCGDVEAWKHDPYCQTHKL
B18: PS539: UBR-box domain homolog, SEQ ID NO: 168 (protein, listed as Kazachstania africana)
chain: MQTSFTHKGRNCGRKFKVGEPLYRCHECGFDDTCVLCIHCFNPADHENHHIYTDICNDFTSGICDCGDTEAWNGDLHCKAEEI
B19: PS515: UBR-box domain homolog, SEQ ID NO: 143 (protein, listed as Wasmannia auropunctata)
chain: MICGKMFKIGEPTYSCRECGMDSTCVLCVDCFKQSAHRNHKYKMGTSSGGGCCDCGDTEAWKKEPFCKTHVV
B20: PS542: UBR-box domain homolog, SEQ ID NO: 171 (protein, listed as Trichuris suis)
chain: MRCNHVFANGEATYSCRGCAADPTCVLCASCFELSAHKEHKYMITTSSGTGYCDCGDPEAWKADPFCQQHQP
B21: PS525: UBR-box domain homolog, SEQ ID NO: 153 (protein, listed as Mus musculus)
chain: MLCGKVFKSGETTYSCRDCAIDPTCVLCMDCFQSSVHKNHRYKMHTSTGGGFCDCGDTEAWKTGPFCVDHEP
B22: PS529: UBR-box domain homolog, SEQ ID NO: 157 (protein)
chain: B21 chain with S9G, S34N, V36I, F66L, V68A, D69N
modifications: Chelonia mydas
B23: PS532: UBR-box domain homolog, SEQ ID NO: 160 (protein, listed as Schizosaccharomyces cryophilus)
chain: MSCGRIFKKGEVFYRCKTCSVDSNSALCVKCFRATDHHGHETSFTISAGSGGCCDCGNSAAWIRDMPCKIHNR
B24: PS617: UBR-box domain homolog, SEQ ID NO: 177 (protein, listed as Eremothecium sinecaudum)
chain: MPKEHRGTSCNKHCQPTETVYYCFDCTKNPLYEICEECFDADKHLGHRWTSKVVSRPEGKICHCGDPSGLTDPENGYECKN
B25: PS519: UBR-box domain homolog, SEQ ID NO: 147 (protein, listed as Manduca sexta)
chain: MLCGRVFKQGEPAYSCRECGMDNTCVLCVECFKVSAHRHHKYKMGQSGGGGCCDCGDTEAWKRDPFCELHAA
B26: PS530: UBR-box domain homolog, SEQ ID NO: 158 (protein, listed as Acropora millepora)
chain: MLCGKVFKVGEPTYSCRDCGYDNTCVLCINCFQKSIHKNHHYKMNTSGGGGVCDCGDVEAWKEGEACEIHQQ
B27: PS527: UBR-box domain homolog, SEQ ID NO: 155 (protein, listed as Mizuhopecten yessoensis)
chain: MLCGKVFKYGEPTYSCRDCANDPTCVLCIDCFQKSAHKKHRYKMSTSGGGGYCDCGDSEAWKTAPFCSNHKA
B28: PS25: SEQ ID NO: 167 (protein, listed as Saccharomyces cerevisiae)
chain: MGSVHKHTGRNCGRKFKIGEPLYRCHECGCDDTCVLCIHCFNPKDHVNHHVCTDICTEFTSGICDCGDEEAWNSPLHCKAEEQ
B29: PS615: UBR-box domain homolog, SEQ ID NO: 175 (protein, listed as Kluyveromyces marxianus)
chain: MVNEHRGSQCSKQCHGTETVYYCFDCTKNPLYEICEECFDETQHMGHRYTSRVVTRPEGKVCHCGDISGYNNPEKAFQCKI
B30: PS616: UBR-box domain homolog, SEQ ID NO: 176 (protein, listed as Kluyveromyces lactis)
chain: B29 chain with V2H, E4D, E37D, T42S, M45I, G69S, N72D, E74K, K80R
B31: PS517: UBR-box domain homolog, SEQ ID NO: 145 (protein)
chain: MMCGRVFKMGEPTYSCRECGVDSTCVLCVGCFQQSAHRDHKYKMGTSGGGGCCDCGDTEAWKRDPFCEIHMV
modifications: Harpegnathos saltator
B32: PS518: UBR-box domain homolog, SEQ ID NO: 146 (protein, listed as Nilaparvata lugens)
chain: MVCGRVFKMGEPSYHCRECGMDATCVLCVDCFKKSSHRNHKYKMGTSIGGGCCDCGDVEAWKTEPYCEVHIA
B33: Homo sapiens UBR2: SEQ ID NO: 174 (protein, listed as Homo sapiens)
chain: MGPLGSLCGRVFKVGEPTYSCRDCAVDPTCVLCMECFLGSIHRDHRYRMTTSGGGGFCDCGDTEAWKEGPYCQKHE

system: amino acid at a terminal position of a polypeptide; details: Table 2; amino acid identity at a terminal position (phosphotyrosine also internal); inferred from literature and/or demonstrated by the inventors; cited from earlier work

Binding Pref., K, R, H:
B1
B2
B3
B4
B5
B6
B7
B8
B9
B10
B11
B12
B13
B14
B15
B16
B17
B18
B19
B20
B21
B22
B23
B24
B25
B26
B27
B28
B29
B30
B31
B32
B33
